Test results from patent publication US20260184785A1 (CYTOCARES SHANGHAI, published 2026).

Target: T1, trispecific antibody LMOAME
T1 construct: Trispecific single-chain tandem scFv, monomer of 83.8 kDa without Fc; also called CD19×CD3×CD28 antibody; LMOAME DP
Assay: ELISA, antigen-Fc coated on the plate, detection with HRP-protein L
Procedure: Recombinant human CD19 antigen (CD19 (C-Fc), Novoprotein, Cat #: C572), and CD28 antigen (CD28 (C-Fc), Novoprotein, Cat #: C81) were diluted to 2 μg/mL with a protein coating solution, and plates were coated with the dilutions of 100 μL per well overnight at 2-8° C. The plates were washed the next day and blocked with a blocking solution of 1% Casein+3% BSA (PBS+2% BSA (V/W)).
The diluted antibodies were added to the 96-well flat bottom plates coated with antigens respectively and incubated for 1 h at 37° C.

B1: Recombinant human CD19 antigen (CD19 (C-Fc), Novoprotein, Cat #: C572) (Fc fusion, UniProt P15391 20-291, looked up)
chain: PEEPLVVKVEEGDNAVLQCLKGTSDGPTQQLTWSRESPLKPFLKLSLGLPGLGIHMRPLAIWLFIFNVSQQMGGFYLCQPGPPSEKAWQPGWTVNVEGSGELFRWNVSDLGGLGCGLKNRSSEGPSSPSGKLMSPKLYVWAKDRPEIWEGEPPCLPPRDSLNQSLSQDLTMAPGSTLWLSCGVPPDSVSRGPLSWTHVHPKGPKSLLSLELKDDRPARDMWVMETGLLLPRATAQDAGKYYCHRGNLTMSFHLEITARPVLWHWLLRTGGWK
notes: Bought C-terminal Fc fusion; also called rhCD19; hCD19 antigen; not shown: C-terminal Fc tag of the bought protein
binding result: binds
